In article PMC5621659 one finds percent reduction of insulin-IR binding and percent reduction of binding against FL apoE data, which are given here for 2 substances.

Common to all, as to assay: ELISA
On the technique in general: ELISA stands for enzyme-linked immunosorbent assay.

For assay [1], the target named is recombinant human insulin receptor (IR) (human) (UniProt P06213).
For assay [2], the target named is C-terminal truncated apoE3 (aa1-186).
The target in assay [3] is C-terminal truncated apoE4 (aa1-186).

Regarding “recombinant human apoE4 (from UniProt P02649 19-317) (natural protein)”, the percent reduction of insulin-IR binding at 16 μg/ml in assay [1] is 50%.

For “recombinant human insulin receptor (IR) (from UniProt P06213 28-1382)”, the percent reduction of binding against FL apoE amounted to 50% in assay [2] and 30% in assay [3].
